Experimental data as given in patent US20040019193A1, “Mob-5/hmob-5 as a cancer diagnostic marker” (priority 2002, published 2004).

B1: Mob-5-AP: rat Mob-5-alkaline phosphatase fusion protein, secreted, 90 KD (SEQ ID NO: 8) (protein)
chain: MQTSLRQQILPGLSLILLVLNQVPELQGQEFRFGPCQVTGVVLPELWEAFWTVKNTVKTQDELTSVRLLKPQVLQNVSDAESCYLAHSLLKFYLNTVFKNYHSKIVKFKVLKSFSTLANNFLVIMSKLQPSKDNAMLPISDSARRRFLLYHRTFKQLDIEVALAKAFGEVDILLAWMQNFYQLGSSGIIPVEEENPDFWNREAAEALGAAKKLQPAQTAAKNLIIFLGDGMGVSTVTAARILKGQKKDKLGPEIPLAMDRFPYVALSKTYNVDKHVPDSGATATAYLCGVKGNFQTIGLSAAARFNQCNTTRGNEVISVMNRAKKAGKSVGVVTTTRVQHASPAGTYAHTVNRNWYSDADVPASARQEGCQDIATQLISNMDIDVILGGGRKYMFPMGTPDPEYPDDYSQGGTRLDGKNLVQEWLAKRQGARYVWNRTELMQASLDPSVTHLMGLFEPGDMKYEIHRDSTLDPSLMEMTEAALRLLSRNPRGFFLFVEGGRIDHGHHESRAYRALTETIMFDDAIERAGQLTSEEDTLSLVTADHSHVFSFGGYPLRGSSIFGLAPGKARDRKAYTVLLYGNGPGYVLKDGARPDVTESESGSPEYRQQSAVPLDEETHAGEDVAVFARGPQAHLVHGVQEQTFIAHVMAFAACLEPYTACDLAPPAGTTDAAHPG

Columns and labels:
mob-5 = experiment: Differential display of Rat-1(ras) cells with or without PD98059; format: cell-based; conditions: 10 μM for 24 hours
Procedure: (B) Identification of mob-5 as a gene activated by oncogenic h-ras but inactivated by MAP kinase inhibitor, PD98059. Total cellular RNA from the normal Rat-1 cells and their oncogenic h-ras transformed derivatives Rat-1(ras) treated with or without 10 μM of PD98059 for 24 hours were compared by differential display. The same primer combination as used in (A) identified the mob-5 (arrow) again as a candidate gene activated by ras but inhibited by ras downstream MAP kinase inhibitor.
RNA purification, automated differential display screening and Northern blot analysis Total RNA from cells were purified using the RNApure reagent following the manufacture instruction (GenHunter Corp., Nashville, Tenn.). DNase I treatment of RNA prior to differential display was carried out using the MessageClean kit (GenHunter Corp., Nashville, Tenn.). Differential display PCR reactions were setup in 96-well PCR plates (Perkin-Elmer) by the Beckman Biomek 2000 automated liquid dispensing workstation using one-base anchored oligo-dT primers and rationally designed arbitrary 13mers (Liang et al., 1994b) from the RNAimage kits (GenHunter Corp., Nashville, Tenn.). The cDNAs were amplified in the presence of ^33P [(α-dATP] (New England Nuclear, Boston, Mass.) using Taq DNA polymerase (Qiagene) and separated on 6 % denaturing polyacrylamide gels (National Diagnostic, Atlanta, Ga.). […]

[1] = test system: putative Mob-5 receptor on the cell surface of h-ras transformed Rat-1 cells; experiment: Mob-5-AP receptor binding assay on Rat-1 cells before and after h-ras transformation; conditions: normal versus h-ras transformed Rat-1 cells, media at 0.7 unit/ml
Procedure: Both the normal and oncogenic h-ras transformed Rat-1 cells were analyzed for the ability to bind Mob-5-AP versus AP alone. The cell surface bound AP activity was measured to reveal a Mob-5 mediated-binding activity present only on the cell surface of the h-ras transformed cells. The result is representative of at least 5 independent experiments.
Identification of a putative receptor(s) of Mob-5 on the cell surface of h-ras transformed cells Another possible mechanism for Mob-5 function is that Mob-5 acts as an autocrine growth factor downstream of activated Ras. Ras transformed RIE cells can be used in a receptor binding assay. APtag technology (Flanagan and leder, 1990) was employed to create a Mob-5-alkaline phosphatase (AP) fusion protein, which can be used as an affinity agent for the receptor analysis. This strategy has been successfully used to identify and clone a number of important cell surface receptors, including those of leptin (Tartaglia et al., 1995) and semaphorin III (He and Tessier-Lavigne, 1997). Like Mob-5 itself, Mob-5-AP was secreted at high levels in 293T cells stably transfected with the recombinant plasmid. The secreted 90 KD Mob-5-AP can be readily detected from the culture media by either the alkaline phosphatase assay or direct Western blot analysis using anti-Mob-5 antibody (FIG. 4A). […]

[2] = test system: putative Mob-5 receptor on the cell surface of h-ras transformed RIE cells; experiment: AP fusion protein receptor binding assay on RIE cells before and after h-ras transformation; parameters: species or system rat; conditions: normal versus h-ras transformed RIE cells, media at 0.7 unit/ml
Procedure: (E) Mob-5-AP, but not hMob-5-AP, binds specifically to the cell surface of oncogenic h-ras transformed RIE cells. Both the normal and oncogenic h-ras transformed RIE cells were analyzed for the ability to bind Mob-5-AP versus AP alone. The same experiment was carried out with hMob-5-AP and AP alone. The cell surface bound AP activity was measured to reveal a species specific Mob-5 binding activity present only on the cell surface of the h-ras transformed RIE cells. The result is representative of at least 3 independent experiments.
As in Rat-1 cells, the putative Mob-5 receptor was also found to be differentially expressed between the normal and h-ras transformed RIE cells using Mob-5-AP fusion protein as a ligand (FIG. 4E, left panel). To determine whether hMob-5-AP could also differentially bind to the cell surface of h-ras transformed RIE cells, the receptor binding assay was conducted using hMob-5-AP in place of Mob-5-AP.
mob-5 expression is activated by both oncogenic h-ras and k-ras in intestinal epithelial cells Cancer arises from the epithelial cells rather than fibroblasts and K-ras mutations have been tightly linked with cancers of gastric intestinal origins (Kiaris and Spandidos, 1995). […] After the final 5 min extension at 72 ° C., the RT-PCR products were analyzed on a 1.5 % agarose gel. […]

| Molecule | mob-5 expression (differential display) (mob-5) | cell surface binding (bound AP activity) versus AP alone [1] | cell surface binding (bound AP activity) versus AP alone [2] |
| --- | --- | --- | --- |
| COc1cccc(-c2cc(=O)c3ccccc3o2)c1N [PD98059] | inactivated |  |  |
| B1 |  | preferentially bound to the cell surface of the h-ras transformed Rat-1 cells, but not of the parental control | binds specifically only to the ras transformed RIE cells |
